For 2 molecules, EC50 results are on record in patent publication US20240239875A1 (published 2024).

Assay in all cases: ELISA
(ELISA stands for enzyme-linked immunosorbent assay.)

One test has as its target T1, MERS spike protein (MERS-CoV, UniProt K9N5Q8 18-1296).
T1 chain: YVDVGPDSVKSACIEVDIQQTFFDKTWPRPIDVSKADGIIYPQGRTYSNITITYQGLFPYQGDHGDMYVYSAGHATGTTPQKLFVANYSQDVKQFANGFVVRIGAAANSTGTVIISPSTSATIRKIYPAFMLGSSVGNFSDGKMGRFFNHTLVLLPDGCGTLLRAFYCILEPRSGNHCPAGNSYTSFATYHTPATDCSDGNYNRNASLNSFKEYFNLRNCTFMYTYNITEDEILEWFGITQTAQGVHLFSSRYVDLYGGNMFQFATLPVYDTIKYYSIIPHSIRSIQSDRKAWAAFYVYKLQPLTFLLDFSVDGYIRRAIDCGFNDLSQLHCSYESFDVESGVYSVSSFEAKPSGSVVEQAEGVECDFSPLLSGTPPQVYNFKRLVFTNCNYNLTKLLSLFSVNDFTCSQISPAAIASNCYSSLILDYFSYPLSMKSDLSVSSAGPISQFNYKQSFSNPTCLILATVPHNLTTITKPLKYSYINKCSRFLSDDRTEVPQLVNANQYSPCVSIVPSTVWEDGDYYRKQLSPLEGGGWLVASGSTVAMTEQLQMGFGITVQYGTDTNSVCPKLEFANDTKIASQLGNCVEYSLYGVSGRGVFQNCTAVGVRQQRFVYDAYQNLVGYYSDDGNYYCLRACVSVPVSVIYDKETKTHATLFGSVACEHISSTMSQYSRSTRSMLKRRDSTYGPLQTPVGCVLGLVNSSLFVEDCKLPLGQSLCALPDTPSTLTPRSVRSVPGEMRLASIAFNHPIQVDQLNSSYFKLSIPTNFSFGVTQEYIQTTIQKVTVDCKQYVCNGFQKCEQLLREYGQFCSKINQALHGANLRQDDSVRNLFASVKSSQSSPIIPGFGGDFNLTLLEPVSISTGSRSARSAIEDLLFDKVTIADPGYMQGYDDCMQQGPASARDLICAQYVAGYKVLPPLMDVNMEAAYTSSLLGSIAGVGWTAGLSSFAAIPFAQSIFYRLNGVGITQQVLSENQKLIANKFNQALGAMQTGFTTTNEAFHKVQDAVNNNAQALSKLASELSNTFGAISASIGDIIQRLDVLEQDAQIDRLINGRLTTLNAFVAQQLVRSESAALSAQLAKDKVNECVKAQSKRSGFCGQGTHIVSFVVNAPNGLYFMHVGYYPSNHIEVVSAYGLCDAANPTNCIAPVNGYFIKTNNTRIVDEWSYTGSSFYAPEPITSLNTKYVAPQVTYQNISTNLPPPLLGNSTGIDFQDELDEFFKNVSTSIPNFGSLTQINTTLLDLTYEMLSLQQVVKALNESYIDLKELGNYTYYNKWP

The target of the next test is SARS-CoV-1 spike protein (SARS-CoV-1, UniProt P59594 14-1195).
In the next test the target is SARS-CoV-2 S2 domain (UniProt P0DTC2 686-1213).
In another test the target is T2, HKU1 spike protein (HCoV-HKU1).
T2 chain: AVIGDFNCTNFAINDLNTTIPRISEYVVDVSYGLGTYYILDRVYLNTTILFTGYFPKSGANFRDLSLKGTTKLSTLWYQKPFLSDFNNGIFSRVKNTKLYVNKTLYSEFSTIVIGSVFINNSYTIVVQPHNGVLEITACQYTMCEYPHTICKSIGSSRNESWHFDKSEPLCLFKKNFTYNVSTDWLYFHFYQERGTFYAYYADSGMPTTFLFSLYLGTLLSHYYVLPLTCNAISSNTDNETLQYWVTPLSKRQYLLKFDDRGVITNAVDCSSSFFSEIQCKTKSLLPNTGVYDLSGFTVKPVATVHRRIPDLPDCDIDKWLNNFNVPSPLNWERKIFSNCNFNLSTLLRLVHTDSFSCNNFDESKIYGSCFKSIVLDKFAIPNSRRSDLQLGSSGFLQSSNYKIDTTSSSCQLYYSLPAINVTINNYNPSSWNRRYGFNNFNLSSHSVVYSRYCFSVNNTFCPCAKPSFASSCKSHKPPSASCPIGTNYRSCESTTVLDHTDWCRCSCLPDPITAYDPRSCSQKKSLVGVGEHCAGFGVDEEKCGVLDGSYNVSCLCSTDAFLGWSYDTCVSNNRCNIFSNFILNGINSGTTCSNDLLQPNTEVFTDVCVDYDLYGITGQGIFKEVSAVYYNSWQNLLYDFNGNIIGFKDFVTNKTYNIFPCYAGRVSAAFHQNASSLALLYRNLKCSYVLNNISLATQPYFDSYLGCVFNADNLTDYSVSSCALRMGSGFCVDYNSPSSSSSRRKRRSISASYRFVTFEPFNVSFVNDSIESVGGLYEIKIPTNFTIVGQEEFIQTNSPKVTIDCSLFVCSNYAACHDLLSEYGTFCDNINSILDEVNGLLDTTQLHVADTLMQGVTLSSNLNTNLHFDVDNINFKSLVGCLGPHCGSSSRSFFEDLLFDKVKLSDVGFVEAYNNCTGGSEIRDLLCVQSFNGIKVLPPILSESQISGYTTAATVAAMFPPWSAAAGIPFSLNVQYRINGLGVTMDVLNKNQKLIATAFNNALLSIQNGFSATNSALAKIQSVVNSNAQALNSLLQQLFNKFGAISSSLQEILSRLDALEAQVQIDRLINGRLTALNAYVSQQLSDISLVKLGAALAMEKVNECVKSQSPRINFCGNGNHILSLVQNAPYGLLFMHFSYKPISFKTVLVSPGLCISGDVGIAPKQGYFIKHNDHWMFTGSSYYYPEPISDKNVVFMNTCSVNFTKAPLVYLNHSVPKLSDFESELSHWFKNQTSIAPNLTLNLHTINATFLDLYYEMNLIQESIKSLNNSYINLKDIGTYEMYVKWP

The target in test [1] is SARS-CoV-2 receptor binding domain (UniProt P0DTC2 319-541).
Test [2] concerns the target SARS-CoV-2 prefusion stabilized trimer protein (WIV02 isolate spike protein) (UniProt P0DTC2 14-1213).

B1: 10-B11-A (antibody, V domains shown)
VH: QVQLQQPGAELVKPGASVKVSCKASGYTFTSYWMHWVKQRPGQGLEWIGRIHPSDSDTNYYQKFKGKATLSVDKSSSTAYMQLSSLTSEDSAVYYCAIPLYSYDNSGGYYPMDYWGQGTSVTVSS
VL: DIVMTQSQKFMSTSVGDRVTITCKASQNVRTAVAWYQQKPGQSPKKLIYLASNRHTGVPDRFTGSGSGTDFTLAISNVQSEDLADYFCLQHWNYPFTFGSGTRLEIK
Regarding B1, the EC50 with MERS spike protein was greater than 200 nM; with SARS-CoV-1 spike protein, 20.8 nM; with SARS-CoV-2 S2 domain, 1.13 nM; with HKU1 spike protein it was greater than 200 nM.

B2: 4-N22-A (antibody, V domains shown)
VH: QVQLQQPGTELVKPGASVKLSCKASGYTFTNYWMYWVKQRPGQGLDWIGNINPSNGGTNYNEKFKSKATLTVDKSSSTAYMQLSSLTSEDSAVYYCARETGNYWGQGTTLTVSS
VL: DILMTQSPSSMSVSLGDTVSISCHASQGISSNIGWLQQKPGKSFKGLIYHGTNLEDGVPSRFSGSGSGADYSLTISSLESEDFADYYCVQYAQFPYTFGGGTKLEIK
Regarding B2, the EC50 was 0.21 nM in test [1], 17.8 nM in test [2] and 15.8 nM with HKU1 spike protein.

The EC50 is the concentration needed to bring the measured effect to its halfway point. Low readings indicate an effect from little substance, high ones a need for much substance.
